This note sets out measurements from US20180002425A1.

Assay [1] addresses wild-type human TpoR on Ba/F3-hMpl cells (human) (UniProt P40238). In words: cell-based or functional assay.
Assay [2] addresses TpoR-IL6ST chimeric receptor on HEK293T SIE-bla reporter cells (clone CR2-9) (human) (UniProt P40238). The assay is described as follows: cell-based or functional assay.
Assay [3] concerns the target granulocyte colony stimulating factor receptor (UniProt Q99062).

Sequence of granulocyte colony stimulating factor receptor (Q99062 25-836 limits assumed): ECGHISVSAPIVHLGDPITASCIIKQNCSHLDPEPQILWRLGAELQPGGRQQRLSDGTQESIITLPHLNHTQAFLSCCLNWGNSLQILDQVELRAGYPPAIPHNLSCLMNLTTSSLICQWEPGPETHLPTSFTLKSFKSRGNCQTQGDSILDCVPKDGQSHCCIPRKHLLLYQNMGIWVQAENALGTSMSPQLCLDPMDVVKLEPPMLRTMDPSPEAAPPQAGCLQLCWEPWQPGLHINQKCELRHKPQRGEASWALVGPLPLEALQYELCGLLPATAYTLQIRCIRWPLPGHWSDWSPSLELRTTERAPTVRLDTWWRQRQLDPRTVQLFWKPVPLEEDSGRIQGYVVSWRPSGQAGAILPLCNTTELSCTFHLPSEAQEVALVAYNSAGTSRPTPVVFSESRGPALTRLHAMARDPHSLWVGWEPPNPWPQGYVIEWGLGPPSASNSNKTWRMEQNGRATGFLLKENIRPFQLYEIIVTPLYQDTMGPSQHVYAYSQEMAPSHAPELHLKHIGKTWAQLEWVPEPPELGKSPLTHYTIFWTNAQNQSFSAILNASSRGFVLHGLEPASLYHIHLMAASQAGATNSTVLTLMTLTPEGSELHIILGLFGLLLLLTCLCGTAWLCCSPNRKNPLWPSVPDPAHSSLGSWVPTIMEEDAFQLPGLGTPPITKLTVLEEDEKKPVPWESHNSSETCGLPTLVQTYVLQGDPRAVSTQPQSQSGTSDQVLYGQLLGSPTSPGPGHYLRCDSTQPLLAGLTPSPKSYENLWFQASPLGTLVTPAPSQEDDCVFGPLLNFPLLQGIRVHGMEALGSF

For “Thrombopoietin (from UniProt P40225 22-353) (ligand)”, the EC50, long-term proliferation assay (MTS) of Ba/F3-hMPL cells in assay [1] is 0.07 nM. Further, the EC50, short-term fluorescence (FRET beta-lactamase) reporter assay in assay [2] worked out at 0.02 nM. On to “granulocyte colony stimulating factor (from UniProt P09919 31-204) (ligand)”, for which the Responsive Population (fraction of reporter cells in the gate, Pacific Blue-A against AmCyan-A, FRET beta-lactamase reporter; unit not given) in assay [3] worked out at 84.2.
